What was measured:
[1] = molecular target: the molecule itself; test: negative-stain electron microscopy
[2] = molecular target: the molecule itself; test: reducing and non-reducing SDS-PAGE

B1: PIV 5 hemagglutinin-neuraminidase (HN) ectodomain beginning at residue 56, HN(ecto56) (domain or fragment)
chain: SPSSGLGSITDLLNNILSVANQIIYNSAVALPLQLDTLESTLLTAIKSLQTSDKLEQNCSWSAALINDNRYINGINQFYFSIAEGRNLTLGPLLNMPSFIPTATTPEGCTRIPSFSLTKTHWCYTHNVILNGCQDHVSSNQFVSMGIIEPTSAGFPFFRTLKTLYLSDGVNRKSCSISTVPGGCMMYCFVSTQPERDDYFSAAPPEQRIIIMYYNDTIVERIINPPGVLDVWATLNPGTGSGVYYLGWVLFPIYGGVIKGTSLWNNQANKYFIPQMVAALCSQNQATQVQNAKSSYYSSWFGNRMIQSGILACPLRQDLTNECLVLPFSNDQVLMGAEGRLYMYGDSVYYYQRSNSWWPMTMLYKVTITFTNGQPSAISAQNVPTQQVPRPGTGDCSATNRCPGFCLTGVYADAWLLTNPSSTSTFGSEATFTGSYLNTATQRINPTMYIANNTQIISSQQFGSSGQEAAYGHTTCFRDTGSVMVYCIYIIELSSSLLGQFQIVPFIRQVTLS
modifications: carbohydrate at 4 N-linked glycosylation sites; inter-chain disulfide bond (covalent dimers)
stoichiometry N [1]: 4
stoichiometry N [2]: 2

From article PMC2603141 (Virology, 2008)
